Laboratory results taken from PMC6430831.

Columns and labels:
IKKε = IKKε (UniProt Q14164); assay: anti-GEF-H1 co-IP, IKKε blot; details: sites S886
IRF5 = IRF5 (UniProt Q13568); assay: anti-GEF-H1 co-IP, IRF5 blot; details: reference: wild type; sites S886

GEF-H1 (from UniProt Q92974) S324A/S886A
binding against the reference (IKKε; reference: S324A): stronger

GEF-H1 (from UniProt Q92974) S399A/S886A
binding against the reference (IKKε; reference: S399A): gained

GEF-H1 (from UniProt Q92974) S886A
binding against the reference (IRF5): stronger
binding against the reference (IKKε; reference: wild type): stronger
